Results published in the nanobody polyreactivity screen of Harvey et al. (2022).

Assay: yeast display, Sf9 membrane polyspecificity reagent, FACS + sequencing; frameworks hold sequencing errors
How it was run: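 Using colony PCR, genes from sorted yeast display clones were amplified, then sequenced on MiSeq at 2 × 250 and filtered by CDR length. The clones had been stained with 10% biotinylated, detergent-solubilized Sf9 membrane reagent for 1 hour at 4 °C and sorted by FACS into low and high (top ~1%) gates on anti-HA and streptavidin fluorescence. Polyreactivity labels come from the gate of origin.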

## QVQLVESGGGLVQAGGSLRLSCAASGFTFEGYAMGWYRQAPGKERELVASISSGGGTNYADSVKGRFTISRDNAKNTVYLQMNSLKPEDTAVYYCAARAYPYFWTGQKLSRFGYWGQGTQVTVSS
  polyreactivity (PSR sort gate): high polyreactivity

## QVQLVESGGGLVQAGGSLRLSCAASGRIFRSNAMGWYRQAPRKERELVPAITSSDTSTYYADSVKGRFTISRDNAKNTVYLQMKSLKPEDTAVYYCAADFKPTGTNEPKELDYWGQGTQVTVSS
  polyreactivity (PSR sort gate): low polyreactivity

## QVQLVESGGGLVQAGGSLRLSCAASGFTFSYYAMGWYRQAPGKERELVAAITFTGGSTYYADSVKGRFTISRDNAKNTVYLQMNSLKPEDTAVYYCAADWYYGDEYEYWGQGTQVTVSS
  polyreactivity (PSR sort gate): high polyreactivity

## QVQLVESGAGLVQAGGSLRLSCAASGSIFDDYAMGWSRQAPGKESELVAAISSSGTSTYYADSVKGRFTISRDNAKNTVYLQMNSLKPEDTAVYYCNRGLAARVGSGDYWGQGTQVTVSS
  polyreactivity (PSR sort gate): low polyreactivity

## QVHLVESGGGLVQAGGSLRLSCSASGITFTRYTMGWYRQARGKERELVASIRRSGSTNYADSVKGRFTISRDNAKNTVYLQMNSLKPEDTAVYYCAAVQTGRYYYWGQGTQVTVSS
  polyreactivity (PSR sort gate): high polyreactivity

## QVQLVESGGGLVQAGGSLRLSSAASGRTFFRYAMGWYRQAPGKERELVAAITWSGGTTYYADSVKGRFTISRDNAKNTVYLQMNSLKPEDTAVYYCNGRGLWYRRVVTYGYWGQGTQVTVSS
  polyreactivity (PSR sort gate): high polyreactivity

## QVQLVESGGRLVQAGGILRLSCAASGRIFSANAMGWYRQAPGKERELVAAITSSGGSTYYADSVKGRFTISRDNAKNTVYLQMNSLKPEDTAVYYCAAESAAYGGGTSDAGYESDYLGQGTQVTVSS
  polyreactivity (PSR sort gate): low polyreactivity

## QVQLVESGGGLVQAGGSLRLSCAASGRTFNGYAMGWYRQAPGKERELVAAITWNGGRTSYADSVKGRFTISRDNAKNTVYLQMNSLKPEDTAVYYCATAVLYPYFFSNMDYWGQGTQVTVSS
  polyreactivity (PSR sort gate): low polyreactivity

## QFQLVESGGGLVQARGSLRLSCAPSGRTFGIYTMGWYRPAPGKERELVAAISAGGGRTSYADSVKGRFTISRDHAKNTVYLQMMSLKPEDTAVYYCAARVYQYRNEDTTRRAGRSYWGQGTQVTVSS
  polyreactivity (PSR sort gate): high polyreactivity

## QVQHVESGGGLVQAGGSLRLSCAASGNIFGLNAMGWYRQAPGKERELVAAISKSGGSTFYADSVKGRFTISRDNAKNTVYLQMNSLKPEDTAVYYCAADHRYHWAYPRGYYYWGQGTQVTVSS
  polyreactivity (PSR sort gate): high polyreactivity

## QVQLVESGGGLVQAGGSLRLSCAASGSTFKPYAMGWYRQAPGKERELVADISGRGGSTYYADSVKGRFTISRDNAKKTVYLQMNSLKPEDTAVFYCATYSSRQRKSSYYYWGQGTHVTVSS
  polyreactivity (PSR sort gate): high polyreactivity

## QVQHVESVGGLVQAGGSLRLSCAASGFISDWYAMGWYRQAPGKERELVATIDWIGGSTYADSVKGRFTISRDNAKNTVYLQMNSLKPEDTAVYYCAADSYFIAWYGAHYAYDYWGQGTQVTVSS
  polyreactivity (PSR sort gate): low polyreactivity

## QVQLVESGGGLVQAGGSLRLSCAASGITFSHNAMGWSRPAPGKERELVAVIRWSGGRTYYADSVKGRFTISRDNAKNTVYLQMNSLKPEDTAVYYCAARPSTAFPYGKIMDYWGQGTQVTVSS
  polyreactivity (PSR sort gate): low polyreactivity

## QVQLVESGGGLVQAGGSLRLSCAASGRTFIINTMGWYRQAHGKERELVAAISKNGATTNYADSVKGRFTISRDNAKNTVYFQMNSLKPEDTAVYYCNARYSGYLRLDYWGQGTQVTVSS
  polyreactivity (PSR sort gate): low polyreactivity

## QVQLVVSGGGLVQAGGSLRLSWAASGSIFERYAMGLYRQAPGKERELVARISRSGTSTYYADSVKGRFTISRDNAKNSVYDQMNSLQPEDTAVYYCNATGSRYSGYQRCHYWRYDYLGQGTQVTVSS
  polyreactivity (PSR sort gate): high polyreactivity

## QVQLVESGGGLVQAGGSLRLSCAASVSIFISYAMGWYRQAPGKERELVAAISSGGSTNYADSVKGRFTISRDNAKNTVYLQMNSLKPEDTAVYYCAADGWLWSFTGDGWWFDDWGQGTQVTVSS
  polyreactivity (PSR sort gate): low polyreactivity

## QVQLVESGGGLVQAGGSLRLICAASGSTFGYYTMGWYRQAPGKERELVAAITWSGGSTYYADSVKGRFTISRDYANNTVYLQMNSLKPEDTAVYYCAADDYWTPFGYWGQGTQVTVLS
  polyreactivity (PSR sort gate): low polyreactivity

## QVQLVESGGGLVQAGGSLRLSCAASGFIFRDNAMGWYRQAPGKERELVAAISERGGRTYYADSVKGRFTISRDNAKNTVYLQMNSLKPEDTAVYYCAAEDIANFYYWGQGTQVTVSS
  polyreactivity (PSR sort gate): high polyreactivity

## QVQLVESGGGLVQAGGSLRLSCAASGFTFAQYTMGWYRPAPGKERELVAAIRVGGGSTYYADSVKGRFTISRDNAKNTVYLQMNSLKPEDTAVYYCAKRTYSRKFRGAYNYWGQGTQVTVSS
  polyreactivity (PSR sort gate): high polyreactivity

## QVQLVESGGGLVQAGGSLRLSCAATGRTFGYSPMGSYRPAPGKERELVAAISRRGGSTYYADSVKGRFIISRDNAKNTVYLQMNSLKPEDTAVYYCAKGHQWGLKGGYDYWGQGTQVTVSS
  polyreactivity (PSR sort gate): high polyreactivity

## QVQLVESGGGLVQAGGSLRLSCAASGRTFKPYAMGWYRQAPGKERELVAAISTRGGSTYYADSVKGRFTISRDNAKNTVYLQMNSLKPEDTAVYYCAATQPGRDYDYWGQGTQVTVSS
  polyreactivity (PSR sort gate): low polyreactivity

## QVQLVESGGGLVQAGGSLRLRCAASGSTFAWYAMGWYRQAPGKESELVAAITQNGGRTYYADSVKGRFTISRDNAKNTVYLQMNSLKPEDTAVYYCANAFIQPGYKYDSWGQVTQVTVSS
  polyreactivity (PSR sort gate): high polyreactivity

## QVQLVESGGGLVQAGGSLRLSCAASGSTFKKYAMGWYRQAPGKERELVATISKNGGSTYYADSVNGRFTISRDNAKNTVYLQMNSLKPEDTAVYYCATRWWYYRTWYDYWGQGTQVTVSS
  polyreactivity (PSR sort gate): high polyreactivity

## QVQLVESGGGLVQAGGSLRLICAATGRIFSPNAMGWYRQAPGKERELVAAITTSGGITYYADSVKGRFTISRDNAKNTVYLQMNSLKPEDTAVYYCNTGYNGRLRDDYWGQGTQVTVSS
  polyreactivity (PSR sort gate): high polyreactivity

## QVQLVESGGGLVQAGGSLRLSCAASGSTFTPYAMGWYRQAPGKERELVAAISIRGGSTNYADSVKGRFTISRDNAKNTVYLQMNSLKPEDTAVYYCNAGRLRYIFKSYDYWGQGTQVTVSS
  polyreactivity (PSR sort gate): high polyreactivity

## QVQLVESGGGLVQAGGSLRLSCAASGRIFDRYAMGWYRPAPGKERELVAASTGSGGRTYYADSVKGRFTISRDNAKNTVYLQMNSLKPEDTAVYYCARAFGQRRYYYWGQGTQVTVSS
  polyreactivity (PSR sort gate): high polyreactivity

## QVQLVESGGGLVQAGGSLRLSCAASGSIFEYYAMGWYRTAPGKERELVAAISSGGPTYYADSVKGRFTISRDNAKNTVYLQMNSLKPEDSAVYYCNADLWYPDYDYWGQGTQVTVSS
  polyreactivity (PSR sort gate): low polyreactivity

## QFQLVESGGGLVQAGGSLRLSCADSGRILRFYAMGWYRQAPGKERELVAAISWTGGRTYYADSVKGRFTISRDNAKNTVYLQMNSLKPEDTAVYYCAAEVFTTGSFRRYDYWGQGTQVTVSS
  polyreactivity (PSR sort gate): high polyreactivity

## QVQIVESGGGLVQAGGSLRLSCAASGSTFGGNAMGWYRQAPGKERELVASITSSGGSTYYADSVKGRFTISRDNAKNTVYLQMNSLKPEDTAVYYCAAGKWYRSPWKYDYWGQGTQVTVSS
  polyreactivity (PSR sort gate): low polyreactivity

## QVQLVESEGGLVQAGGSLRLSCAASGRTFHYYAMGWYRQAPGKERELVAAISSTGGSTYYADSVKGRFTISRDNAKNTVYLQMNSLKPEDPAVYYCAARRSRGYSPTYDYWGQGTQVTVSS
  polyreactivity (PSR sort gate): high polyreactivity

## QVQLVESDGGLVQAGGSLRLSCAASGSTFRYNAMGWYRQAPGKERELVAAISWGGGTPFYADSVKGRFTISRDNAKNTVYLQMNSLTPEDTAVYYCAASYRDYPWGRYYYWGQGTQVTVSS
  polyreactivity (PSR sort gate): low polyreactivity

## QVQLVESGGGLVQAGGSLRLSCAASGFTFGYYAMGWYRQAPGKERELVASISSGGSTNYADSVKGRFTISRDNAKNTVYLQMNSLKPEDTAVYYCNKRAYYGRYDYWGQGTQVTVSS
  polyreactivity (PSR sort gate): high polyreactivity

## LVQLVESGGGLVQAGGSLRLSCAASGRIIPPNAMGWYRQAPGTERELVATITWGVGSTYYADSVKGRFTISRDNAKNTVYLQMNSLKPEDTAVYYCYARRFRPYGFYYWGQGTQVTVSS
  polyreactivity (PSR sort gate): high polyreactivity

## QGQLVESGGGLVQAGGSLRLSCAASGGIFKAYAMGWYRQAPGQERELVAVITIGGRTTYADSVKGRFTISRDNAKNTVYLQMNSLKPEDTAVYYCAKTNYNWLSTAEHDYWGQGTQVTVSS
  polyreactivity (PSR sort gate): low polyreactivity

## QVQHVESGGGLVQAGGSLRLSCAASGSTFGKNTRGWSRQAPGKERELVAAISSRGGSTYYADSGKGRFTISRDNAKNTVYLQMNSLKPEDTAVYYCAAYSVSLGYDYWGQGTQVTVST
  polyreactivity (PSR sort gate): high polyreactivity

## QVQLVESGGGLVQAGGSLRLSCAASGRTFLNYAMGWYRQAPGKEREFVAAITWRVGTTYYADSVKGRFTISRDNAKNTVYLQMNSLKPEDTAVYYCAARSRTGRYDYWGQGTQVTVSS
  polyreactivity (PSR sort gate): high polyreactivity

## QVQLVESGGGLVQAGGSLRLSCAASGSIFDVYAMGWYRPAPGKEREFVATITTSGGNTYYADSVKGRFTISRDHAKNTVHLQMNSLKPEDTAVYYCAKDRVKSPYLVYDSWGQGTQGTVSS
  polyreactivity (PSR sort gate): low polyreactivity

## QVQLVESGGGLVQAGGSLRLSCAASGGTFDWNAMGWYRQAPGKERELVASISSSGGSTYYADSVNGRFTISRDNAKNTVYLQMNSLKPEDTAVYYCNAERKIIAYLWWYDYWGQGTQVTVSS
  polyreactivity (PSR sort gate): low polyreactivity

## QVQLVESGGGLVQAGGSLRLSCAASGSIFFHYAMGWYIQAPGKERELVAAITWDGGSTYYADSVKGRFTISRDNAKNTVYLQMNSLKPEDTAVYYCNADQDLSTDEDYWGQGTQVTVSS
  polyreactivity (PSR sort gate): low polyreactivity

## QVQLVESGGGLVQAGGSLRLSCAASARILRRNAMGWYRQAPGKEREFVAAITWRGGSTYYADSVKGRFTISRDNAKNTVYLQMNSLKPEDTAVYYCAADTYSVEYVLPYYYWGQGTQVTVSS
  polyreactivity (PSR sort gate): high polyreactivity

## QVQLVESGGGLVQAGGSLRLSCAASGRTFRYYAMGWYRQAPGKERELVAGISSSGRTYYADSVKGRFTISRDNAKNTVYLQMNSLKPEDTAVYYCNAVYWPVRPVDRHDYWGQGTQVTVSS
  polyreactivity (PSR sort gate): high polyreactivity

## QVQLVESGGGLVQAGGSLRLSCAASGRIFYINAMGWYRQAPGKERELVAAITGGDGSTTYADSVKGRFTISRDNAKNTVYLQMNSLKPEDTAVYYCNAVTARKYAESQFDHWGQGTQVTVSS
  polyreactivity (PSR sort gate): low polyreactivity

## QVQLVESGGGLDQAGGSLRLSCAASGSIFRNYAMGWYRQAPGKEREFVAAISGGGGSTYYADSVKGRFTISRDNAKNTVYLQMNSLKPEDTAVYYCARVRYYGALKLYAYDHWGQGTQVTVSS
  polyreactivity (PSR sort gate): high polyreactivity
